# Data from US20110223165A1 (Amgen, published 2011).
# How the values were obtained:
# [1] = target: T1, human membrane c-Kit on cells (human, UniProt P10721 26-976); assay: cell-based or functional assay
# [2] = target: T2, Fcγ receptor I (CD64) on U-937 cells (UniProt P12314 16-374, limits assumed); assay: binding to U-937 cells
# T2 construct: whole, on cells; also called FcγRI
# [3] = target: T1, human membrane c-Kit on cells; assay: cell-based or functional assay; remark: listed apart in the source
# [4] = target: T3, recombinant c-Kit receptor-Fc (UniProt P10721 26-520, limits assumed); assay: KinExA equilibrium binding; KinExA equilibrium binding; recombinant c-Kit receptor-Fc
# T3 construct: not shown: Fc part
# T3 sequence (P10721 26-520 limits assumed): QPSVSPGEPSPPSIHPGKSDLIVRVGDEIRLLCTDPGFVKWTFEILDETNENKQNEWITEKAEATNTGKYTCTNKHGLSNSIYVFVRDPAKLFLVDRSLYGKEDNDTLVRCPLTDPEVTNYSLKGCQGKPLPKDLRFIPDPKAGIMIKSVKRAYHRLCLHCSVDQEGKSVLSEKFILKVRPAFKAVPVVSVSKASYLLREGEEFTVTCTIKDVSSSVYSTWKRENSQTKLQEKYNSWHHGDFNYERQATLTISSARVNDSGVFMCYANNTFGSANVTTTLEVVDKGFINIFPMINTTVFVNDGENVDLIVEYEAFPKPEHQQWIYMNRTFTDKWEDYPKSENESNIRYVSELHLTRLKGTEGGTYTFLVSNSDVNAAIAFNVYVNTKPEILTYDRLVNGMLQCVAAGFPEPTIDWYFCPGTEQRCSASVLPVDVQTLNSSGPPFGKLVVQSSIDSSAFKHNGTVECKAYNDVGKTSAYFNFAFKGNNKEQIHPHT
# [5] = target: c-Kit (form in the assay not stated) (UniProt P10721 26-520, limits assumed); assay: Biacore assay, blocking of SCF binding to c-Kit; Biacore; blocking of SCF binding; c-Kit form not stated
# c-Kit (form in the assay not stated), sequence (P10721 26-520 limits assumed): as above
# T1 sequence (P10721 26-976): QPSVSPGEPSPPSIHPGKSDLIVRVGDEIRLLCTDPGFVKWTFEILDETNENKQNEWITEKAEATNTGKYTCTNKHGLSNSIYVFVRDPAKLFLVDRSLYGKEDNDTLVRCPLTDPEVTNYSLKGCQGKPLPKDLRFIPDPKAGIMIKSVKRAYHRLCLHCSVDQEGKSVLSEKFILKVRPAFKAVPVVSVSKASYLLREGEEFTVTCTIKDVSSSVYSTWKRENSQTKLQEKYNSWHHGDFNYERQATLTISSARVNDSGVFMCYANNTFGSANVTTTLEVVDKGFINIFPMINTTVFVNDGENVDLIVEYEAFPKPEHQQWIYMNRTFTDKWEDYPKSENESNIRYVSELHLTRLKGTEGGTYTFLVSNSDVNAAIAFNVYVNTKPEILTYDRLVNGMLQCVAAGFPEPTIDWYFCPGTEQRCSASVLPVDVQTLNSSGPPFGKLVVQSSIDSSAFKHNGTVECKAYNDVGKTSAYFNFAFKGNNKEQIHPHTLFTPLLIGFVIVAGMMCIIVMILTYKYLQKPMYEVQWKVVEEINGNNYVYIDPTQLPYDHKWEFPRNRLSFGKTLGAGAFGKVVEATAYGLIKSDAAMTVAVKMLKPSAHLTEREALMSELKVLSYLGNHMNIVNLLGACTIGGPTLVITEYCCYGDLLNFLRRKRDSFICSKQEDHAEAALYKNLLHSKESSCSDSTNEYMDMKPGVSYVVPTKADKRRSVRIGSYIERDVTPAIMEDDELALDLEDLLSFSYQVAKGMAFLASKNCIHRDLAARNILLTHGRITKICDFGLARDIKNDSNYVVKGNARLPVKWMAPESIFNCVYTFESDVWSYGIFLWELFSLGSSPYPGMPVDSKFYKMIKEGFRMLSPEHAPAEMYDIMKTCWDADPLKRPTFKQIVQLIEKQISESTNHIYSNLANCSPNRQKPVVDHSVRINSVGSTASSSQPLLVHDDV
# T2 sequence (P12314 16-374 limits assumed): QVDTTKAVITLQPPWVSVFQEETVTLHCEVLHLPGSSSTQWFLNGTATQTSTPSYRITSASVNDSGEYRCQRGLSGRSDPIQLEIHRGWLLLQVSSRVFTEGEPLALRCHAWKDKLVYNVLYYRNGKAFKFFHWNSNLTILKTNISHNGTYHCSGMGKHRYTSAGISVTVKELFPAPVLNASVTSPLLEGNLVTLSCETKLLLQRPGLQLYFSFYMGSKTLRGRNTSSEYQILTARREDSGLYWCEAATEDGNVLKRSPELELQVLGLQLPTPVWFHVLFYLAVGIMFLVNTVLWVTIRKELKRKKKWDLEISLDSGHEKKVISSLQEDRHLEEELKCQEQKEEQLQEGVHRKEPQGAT
UT-7 IC50 [1] [ng/mL],binding result [2],Kd [4] [nM],Ki [5] [nM],Binder,"IC50, SCF-dependent survival/proliferation of UT-7 cells [3] [nM]"
3.6,–,–,–,"murine anti-human c-Kit monoclonal antibody SR-1 (antibody, mouse IgG2a, kappa, V domains shown) VH: QVQLQQPGAELVKPGASVKMSCKASGYTFTSYNMHWVKQTPGQGLEWIGVIYSGNGDTSYNQKFKGKATLTADKSSSTAYMQINSLTSEDSAVYYCARERDTRFGNWGQGTLVTVSA VL: NIVLTQSPASLAVSLGLRATISCRASESVDIYGNSFMHWYQQKPGQPPKLLIYLASNLESGVPARFSGSGSRTDFTLTIDPVEADDAATYYCQQNNEDPYTFGGGTKLEIKR",–
4.5,no binding,0.001,0.07,"Humanized SR-1 aglycosylated IgG1 (hSR-1 aIgG1) (antibody, also called Humanized SR-1 aIgG1; Humanized SR-1 aglyco-IgG1) heavy: not shown light: DIVMTQSPDSLAVSLGERATINCRASESVDIYGNSFMHWYQQKPGQPPKLLIYLASNLESGVPDRFSGSGSGTDFTLTISSLQAEDVAVYYCQQNNEDPYTFGGGTKVEIKRTVAAPSVFIFPPSDEQLKSGTASVVCLLNNFYPREAKVQWKVDNALQSGNSQESVTEQDSKDSTYSLSSTLTLSKADYEKHKVYACEVTHQGLSSPVTKSFNRGEC",0.035
